{"source": "paper PMC7530383", "target": "actin (coated on the BLI biosensor)", "test": "BLI; APS biosensor coated with actin; rTLP-1 in PBS pH 7.4 with 0.05% Tween 20 and 0.1% BSA; Octet RED, 25 °C; 300 s association, 120 s dissociation; n = 3", "data": [{"substance": "Recombinant transgelin‐like protein 1 (rTLP‐1) from Mytilus coruscus (natural protein)", "values": [{"measurement": "Kd", "result": 9.45, "unit": "µM"}]}]}
